Assay results taken from publication PMC8715031, “Fusion of Chitin-Binding Domain From Chitinolyticbacter meiyuanensis SYBC-H1 to the Leaf-Branch Compost Cutinase for Enhanced PET Hydrolysis” (Frontiers in Bioengineering and Biotechnology, 2021).

Substrate: CCCC(=O)Oc1ccc([N+](=O)[O-])cc1
Test: purified protein
Type: biochemical, unidentified prokaryotic organism
Details: 50 mM phosphate buffer pH 8.0, isopropanol as substrate solvent, temperature not stated

B1: LCC^ICCG (unidentified prokaryotic organism; D238C/F243I/S283C/Y127G) (protein)
chain: QSNPYQRGPNPTRSALTADGPFSVATYTVSRLSVSGFGGGVIYYPTGTSLTFGGIAMSPGYTADASSLAWLGRRLASHGFVVLVINTNSRFDGPDSRASQLSAALNYLRTSSPSAVRARLDANRLAVAGHSMGGGGTLRIAEQNPSLKAAVPLTPWHTDKTFNTSVPVLIVGAEADTVAPVSQHAIPFYQNLPSTTPKVYVELCNASHIAPNSNNAAISVYTISWMKLWVDNDTRYRQFLCNVNDPALCDFRTNNRHCQ
notes: ICCG variant of LCC, synthetic gene in pET-29a, C-terminal His6-tag, E. coli BL21(DE3), Ni-NTA purified
B1 gave a Km of 126.3 µM, a kcat of 67.5 s⁻¹ and a kcat/Km of 534000 M⁻¹ s⁻¹.

B2: LCC^ICCG-ChBD (unidentified prokaryotic organism; D238C/F243I/S283C/Y127G) (protein)
chain: B1 chain
notes: C-terminal His6-tag; pET-29a, E. coli BL21(DE3), Ni-NTA purified; Chitinolyticbacter meiyuanensis SYBC-H1
Protein B2 has a Km of 141.8 µM, a kcat of 68.4 s⁻¹ and a kcat/Km of 404000 M⁻¹ s⁻¹.
